Literature values in paper PMC7130864.

Target: Kv1.3 (Homo sapiens) (UniProt P22001)
UniProt P22001, sequence (P22001 whole entry): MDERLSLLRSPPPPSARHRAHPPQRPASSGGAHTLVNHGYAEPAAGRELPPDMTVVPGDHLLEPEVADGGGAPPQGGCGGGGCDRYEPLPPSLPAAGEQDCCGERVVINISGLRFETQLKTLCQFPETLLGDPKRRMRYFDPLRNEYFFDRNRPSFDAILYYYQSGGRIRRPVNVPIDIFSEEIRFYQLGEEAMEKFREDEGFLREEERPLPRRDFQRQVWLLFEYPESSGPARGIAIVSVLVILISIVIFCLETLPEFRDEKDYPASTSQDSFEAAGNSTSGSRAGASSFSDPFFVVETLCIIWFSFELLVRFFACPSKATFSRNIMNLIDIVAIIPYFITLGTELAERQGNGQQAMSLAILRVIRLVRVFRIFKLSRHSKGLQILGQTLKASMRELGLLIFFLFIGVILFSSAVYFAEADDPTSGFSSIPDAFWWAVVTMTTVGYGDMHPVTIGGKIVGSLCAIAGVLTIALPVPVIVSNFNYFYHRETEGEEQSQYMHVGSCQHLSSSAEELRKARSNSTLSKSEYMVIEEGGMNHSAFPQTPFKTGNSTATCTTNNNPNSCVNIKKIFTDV

For BmKTX (from UniProt Q9NII7), the Kd is listed as 0.2 nM.
